# Measurements reported in the supplement of paper PMC9112550, “Optimization of the antimicrobial peptide Bac7 by deep mutational scanning” (BMC Biology, 2022).
# System: Escherichia coli TOP10
# Test: shrunken log2 fold change of peptide-encoding DNA abundance (4.5 h post-induction vs induction); higher = less antimicrobial activity (less host growth inhibition)
# Conditions: time post-induction: 4.5 h; library: site-saturation at positions 5, 18, 19, 20
# 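Further: peptides expressed intracellularly from a pBAD plasmid library in pooled LB shake-flask culture, induced with 0.3% L-arabinose, DNA abundance read by NGS, three biological replicates, DESeq2 with apeglm shrinkage.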
row,Sequence,shrunken log2 fold change
1,RRIRVRPPRLPRPRPRPDRVPRP,-0.285
2,RRIRCRPPRLPRPRPRPLWYPRP,-0.307
3,RRIRARPPRLPRPRPRPKFRPRP,-0.043
4,RRIRNRPPRLPRPRPRPSFEPRP,-0.0494
5,RRIRRRPPRLPRPRPRPHMFPRP,0.119
6,RRIRNRPPRLPRPRPRPRANPRP,0.0572
7,RRIRKRPPRLPRPRPRPCRRPRP,0.112
8,RRIRQRPPRLPRPRPRPCWCPRP,-0.0854
9,RRIRMRPPRLPRPRPRPAWYPRP,0.177
10,RRIRHRPPRLPRPRPRPHIHPRP,-0.328
11,RRIRTRPPRLPRPRPRPKQRPRP,0.166
12,RRIRKRPPRLPRPRPRPVDDPRP,0.508
13,RRIRNRPPRLPRPRPRPNPIPRP,0.0101
14,RRIRIRPPRLPRPRPRPYATPRP,-0.334
15,RRIRKRPPRLPRPRPRPIYAPRP,0.144
16,RRIRERPPRLPRPRPRPNNTPRP,-0.769
17,RRIRMRPPRLPRPRPRPTSVPRP,0.172
18,RRIRRRPPRLPRPRPRPYDSPRP,-0.545
19,RRIRWRPPRLPRPRPRPPICPRP,-0.0702
20,RRIRERPPRLPRPRPRPVIFPRP,-0.392

row,Sequence,shrunken log2 fold change
1,RRIRFRPPRLPRPRPRPYGIPRP,-0.00674
2,RRIRIRPPRLPRPRPRPSHLPRP,-0.622
3,RRIRGRPPRLPRPRPRPEMMPRP,1.3
4,RRIRCRPPRLPRPRPRPWRPPRP,0.0893
5,RRIRTRPPRLPRPRPRPTKLPRP,-0.0813
6,RRIRYRPPRLPRPRPRPSYFPRP,-0.684
7,RRIRFRPPRLPRPRPRPSLKPRP,-0.196
8,RRIRERPPRLPRPRPRPHNSPRP,-0.156
9,RRIRKRPPRLPRPRPRPDSHPRP,-0.427
10,RRIRTRPPRLPRPRPRPNAMPRP,0.0879
11,RRIRSRPPRLPRPRPRPIWYPRP,-0.373
12,RRIRYRPPRLPRPRPRPRRRPRP,-0.0051
13,RRIRGRPPRLPRPRPRPFFPPRP,0.154
14,RRIRARPPRLPRPRPRPHGQPRP,0.0639
15,RRIRYRPPRLPRPRPRPLHSPRP,-0.803
16,RRIRHRPPRLPRPRPRPRWHPRP,0.102
17,RRIRKRPPRLPRPRPRPQVVPRP,-0.0176
18,RRIRERPPRLPRPRPRPDGKPRP,0.00926
19,RRIRPRPPRLPRPRPRPCMLPRP,-0.663
20,RRIRSRPPRLPRPRPRPELCPRP,-0.0749

row,Sequence,shrunken log2 fold change
1,RRIRHRPPRLPRPRPRPCYCPRP,-0.617
2,RRIRQRPPRLPRPRPRPRQPPRP,0.622
3,RRIRWRPPRLPRPRPRPWRCPRP,0.144
4,RRIRHRPPRLPRPRPRPVQFPRP,-0.335
5,RRIRYRPPRLPRPRPRPHRQPRP,-0.0423
6,RRIRDRPPRLPRPRPRPRFYPRP,0.386
7,RRIRHRPPRLPRPRPRPEAHPRP,-0.00101
8,RRIRTRPPRLPRPRPRPSNHPRP,-0.666
9,RRIRPRPPRLPRPRPRPKQRPRP,0.186
10,RRIRMRPPRLPRPRPRPENEPRP,2.96
11,RRIRIRPPRLPRPRPRPFHEPRP,-0.0627
12,RRIRTRPPRLPRPRPRPRPPPRP,0.745
13,RRIRIRPPRLPRPRPRPCASPRP,0.02
14,RRIRTRPPRLPRPRPRPPELPRP,0.194
15,RRIRRRPPRLPRPRPRPCGLPRP,0.15
16,RRIRKRPPRLPRPRPRPTEFPRP,0.00591
17,RRIRLRPPRLPRPRPRPVQHPRP,-0.0767
18,RRIRQRPPRLPRPRPRPHGVPRP,-0.226
19,RRIRVRPPRLPRPRPRPYLFPRP,0.0655
20,RRIRNRPPRLPRPRPRPEPRPRP,0.635
